Results reported in PMC10578477, “Biochemical and genetic dissection of the RNA-binding surface of the FinO domain of Escherichia coli ProQ”.

Assays:
[1] = target: T1, ProQ NTD WT (FinO domain) (Escherichia coli, UniProt P45577 1-130); experiment: EMSA; conditions: EMSA: 25 mM Tris pH 7.5, 150 mM NaCl, 5% glycerol, 1 mM MgCl2, 1 nM 32P-RNA, 30 min RT; microplates pretreated with 0.0025% BSA; 6% gel in 0.5x TBE at 4 C
T1 sequence: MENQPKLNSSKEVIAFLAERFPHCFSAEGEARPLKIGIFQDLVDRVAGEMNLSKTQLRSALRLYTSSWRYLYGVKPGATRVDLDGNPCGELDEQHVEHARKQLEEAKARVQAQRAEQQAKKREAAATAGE

[2] = target: T1, ProQ NTD WT (FinO domain); experiment: EMSA; range for five RNAs; EMSA: 25 mM Tris pH 7.5, 150 mM NaCl, 5% glycerol, 1 mM MgCl2, 1 nM 32P-RNA, 30 min RT; microplates pretreated with 0.0025% BSA; 6% gel in 0.5x TBE at 4 C; conditions: protein: recombinant; tags: His6-TEV removed, N-terminal Ser remains; label: 5'-32P; terminator hairpin, 8 U 3' tail
[3] = target: T1, ProQ NTD WT (FinO domain); experiment: EMSA; EMSA: 25 mM Tris pH 7.5, 150 mM NaCl, 5% glycerol, 1 mM MgCl2, 1 nM 32P-RNA, 30 min RT; microplates pretreated with 0.0025% BSA; 6% gel in 0.5x TBE at 4 C; conditions: protein: recombinant, tags: His6-TEV removed, N-terminal Ser remains, label: 5'-32P

Molecule: RybB
- Kd [1]: 26 nM

Molecule: gapA-3'
- Kd [1]: 14 nM

B1: cspE-3' (structured_RNA)
RNA: GUAAGAUACGUCAGCAAGAAUUCAAAACCCGCUUAAUCAGCGGGUUUUUUUU
- Kd [2]: ~6.33 nM

Molecule: GGAAUUCGGAAGGCGCUUAAUCAGCGCCUUUUUU (structured_RNA) [cspE-mini-3'-6U]
- binding signal ([3]; hairpin, 6 U tail (2 predicted single-stranded)): ~2.5 fold weaker Kd than cspE-mini

Molecule: GGAAUUCGGAAGGCGCUUAAUCAGCGCCUUUUUUUU (structured_RNA) [cspE-mini]
- binding signal ([3]; hairpin with 5' and 3' single-stranded regions): ~1 fold weaker Kd than cspE-3'
